Columns and labels:
[1] = target: human ACE2-Fc (human) (UniProt Q9BYF1); experiment: BLI
[2] = target: ACE2 on Vero-E6 cells (African green monkey (endogenous in Vero-E6)); experiment: flow cytometry on cells

soluble epitope-tagged RBD of Wuhan-Hu-1 SARS-CoV-2 (domain or fragment)
Kd [1]: 9.3 nM | EC50 [2]: 17.4 nM

From paper PMC9333441
